In patent WO2012019024A2 (dated 2012):

What was measured:
human HER3 [1] = biological target: T1, human HER3 (human, UniProt P21860 20-1342); experiment: cell-based or functional assay
human HER3 [2] = biological target: T1, human HER3; experiment: Kd named as the concentration of the biotinylated reference antibody in the flow cytometry competition assay
human HER3 [3] = biological target: T1, human HER3; experiment: flow cytometry competition on SKBR3 cells, antibody varied against 10 nM biotinylated HRG1β1 ligand
[4] = biological target: macaque HER3 extracellular domain on 300-19 cells (pSRa-chiHER3) (macaque; human); experiment: flow cytometry on 300-19 cells expressing maHER3 extracellular domain, apparent Kd
human HER3 [5] = biological target: T1, human HER3; experiment: flow cytometry on SKBR3 cells (endogenous HER3), apparent Kd
human HER3 [6] = biological target: T1, human HER3; experiment: flow cytometry on huHER3-overexpressing 300-19 cells, apparent Kd (EC50 of the binding curve)
[7] = biological target: macaque HER3 extracellular domain on 300-19 cells (pSRa-chiHER3) (macaque; human); experiment: cell-based or functional assay
[8] = biological target: macaque HER3 extracellular domain on 300-19 cells (pSRa-chiHER3) (macaque; human); experiment: flow cytometry on maHER3-overexpressing 300-19 cells, apparent Kd
human HER3 [9] = biological target: T1, human HER3; experiment: flow cytometry on SKBR3 cells, apparent Kd
Target sequence in this assay (P21860 20-1342 limits assumed): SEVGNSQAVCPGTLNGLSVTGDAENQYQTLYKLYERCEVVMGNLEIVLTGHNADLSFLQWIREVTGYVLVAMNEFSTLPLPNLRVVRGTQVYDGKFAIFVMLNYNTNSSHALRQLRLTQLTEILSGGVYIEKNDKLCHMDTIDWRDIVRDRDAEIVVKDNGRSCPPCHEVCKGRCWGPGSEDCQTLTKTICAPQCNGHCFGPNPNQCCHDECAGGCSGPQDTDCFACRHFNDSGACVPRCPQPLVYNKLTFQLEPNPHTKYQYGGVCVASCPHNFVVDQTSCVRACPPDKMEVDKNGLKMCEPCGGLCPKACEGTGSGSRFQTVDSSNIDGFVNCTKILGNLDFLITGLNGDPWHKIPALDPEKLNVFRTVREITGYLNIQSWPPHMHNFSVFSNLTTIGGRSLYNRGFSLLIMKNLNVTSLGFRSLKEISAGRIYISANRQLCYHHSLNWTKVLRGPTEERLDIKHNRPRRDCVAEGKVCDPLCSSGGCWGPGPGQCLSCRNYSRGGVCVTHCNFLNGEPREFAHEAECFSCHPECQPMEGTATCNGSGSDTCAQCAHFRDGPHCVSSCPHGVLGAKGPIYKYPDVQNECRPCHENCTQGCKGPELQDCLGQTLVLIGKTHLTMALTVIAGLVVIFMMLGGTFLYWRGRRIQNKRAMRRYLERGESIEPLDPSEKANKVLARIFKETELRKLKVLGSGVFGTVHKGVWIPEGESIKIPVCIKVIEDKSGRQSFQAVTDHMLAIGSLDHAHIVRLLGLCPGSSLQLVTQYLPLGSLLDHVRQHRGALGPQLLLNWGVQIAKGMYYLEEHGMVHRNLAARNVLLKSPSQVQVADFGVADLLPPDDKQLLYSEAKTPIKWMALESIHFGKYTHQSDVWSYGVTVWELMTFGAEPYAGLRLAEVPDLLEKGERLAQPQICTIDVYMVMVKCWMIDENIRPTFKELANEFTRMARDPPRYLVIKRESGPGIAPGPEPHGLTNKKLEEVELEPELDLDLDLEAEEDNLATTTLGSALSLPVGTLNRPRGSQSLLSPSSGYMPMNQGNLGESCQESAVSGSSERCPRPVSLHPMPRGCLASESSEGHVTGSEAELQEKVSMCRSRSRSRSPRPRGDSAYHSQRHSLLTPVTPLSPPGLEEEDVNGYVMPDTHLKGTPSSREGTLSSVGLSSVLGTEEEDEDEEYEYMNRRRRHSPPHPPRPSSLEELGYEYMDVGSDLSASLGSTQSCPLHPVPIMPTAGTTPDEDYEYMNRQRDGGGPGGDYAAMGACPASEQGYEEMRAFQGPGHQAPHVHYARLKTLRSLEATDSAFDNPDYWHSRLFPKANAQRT

[10] = biological target: T2, human HER-3 ECD Fc protein (human; murine, UniProt P21860 20-632); experiment: ELISA on human HER-3 ECD Fc (Figure 28)
T2 construct: also called Fc fusion of human HER-3; not shown: murine IgG2A hinge, CH2, and CH3 region (pmuFc2ANL vector)

[11] = biological target: T3, chL1-S1 chimeric human/murine HER-3 ECD Fc fusion (human; murine, UniProt P21860 20-632); experiment: ELISA on chL1-S1 Fc (Figure 30)
T3 construct: also called chLl-Sl; chimeric ECD comprising human L1-S1 domains and murine L2-S2 domains; not shown: murine IgG2A hinge, CH2, and CH3 region (pmuFc2ANL vector)
T3 chain: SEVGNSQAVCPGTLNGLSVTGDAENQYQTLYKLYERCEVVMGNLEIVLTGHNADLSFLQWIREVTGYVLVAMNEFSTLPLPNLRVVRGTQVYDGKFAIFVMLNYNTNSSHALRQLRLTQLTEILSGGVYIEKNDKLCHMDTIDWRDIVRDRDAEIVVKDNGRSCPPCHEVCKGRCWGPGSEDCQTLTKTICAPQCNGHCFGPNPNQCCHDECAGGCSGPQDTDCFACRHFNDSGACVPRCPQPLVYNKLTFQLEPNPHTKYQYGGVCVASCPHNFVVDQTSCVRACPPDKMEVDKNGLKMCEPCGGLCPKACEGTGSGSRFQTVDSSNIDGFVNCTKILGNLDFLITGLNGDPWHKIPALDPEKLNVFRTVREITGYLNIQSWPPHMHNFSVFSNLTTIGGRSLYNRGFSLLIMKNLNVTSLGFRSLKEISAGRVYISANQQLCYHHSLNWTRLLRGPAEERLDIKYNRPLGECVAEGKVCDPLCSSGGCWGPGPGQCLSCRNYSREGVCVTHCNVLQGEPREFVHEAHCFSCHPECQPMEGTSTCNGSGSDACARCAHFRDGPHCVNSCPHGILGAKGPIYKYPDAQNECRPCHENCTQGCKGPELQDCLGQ

[12] = biological target: T4, murine HER-3 ECD Fc fusion (murine, UniProt Q61526 20-632); experiment: ELISA on murine HER-3 ECD Fc (Figure 29)
T4 construct: 'similarly constructed' to the human fusion; also called murine HER-3-Fc; not shown: murine IgG2A hinge, CH2, and CH3 region (pmuFc2ANL vector)

human HER3 [13] = biological target: T1, human HER3; experiment: flow cytometry on huHER3-expressing 300-19 cells (Figure 15)
human HER3 [14] = biological target: T1, human HER3; experiment: flow cytometry competition on SKBR3 cells, naked antibody varied, competitor biotinylated muHER3-8
human HER3 [15] = biological target: T1, human HER3; experiment: flow cytometry on huHER3-expressing 300-19 cells, apparent Kd, comparison of murine and humanized antibody
human HER3 [16] = biological target: T1, human HER3; experiment: flow cytometry on huHER3-expressing 300-19 cells
human HER3 [17] = biological target: T1, human HER3; experiment: flow cytometry competition on SKBR3 cells, competitor biotinylated muHER3-8

Chain of macaque HER3 extracellular domain on 300-19 cells (pSRa-chiHER3) (macaque; human) (P21860 644-1342, form in doubt): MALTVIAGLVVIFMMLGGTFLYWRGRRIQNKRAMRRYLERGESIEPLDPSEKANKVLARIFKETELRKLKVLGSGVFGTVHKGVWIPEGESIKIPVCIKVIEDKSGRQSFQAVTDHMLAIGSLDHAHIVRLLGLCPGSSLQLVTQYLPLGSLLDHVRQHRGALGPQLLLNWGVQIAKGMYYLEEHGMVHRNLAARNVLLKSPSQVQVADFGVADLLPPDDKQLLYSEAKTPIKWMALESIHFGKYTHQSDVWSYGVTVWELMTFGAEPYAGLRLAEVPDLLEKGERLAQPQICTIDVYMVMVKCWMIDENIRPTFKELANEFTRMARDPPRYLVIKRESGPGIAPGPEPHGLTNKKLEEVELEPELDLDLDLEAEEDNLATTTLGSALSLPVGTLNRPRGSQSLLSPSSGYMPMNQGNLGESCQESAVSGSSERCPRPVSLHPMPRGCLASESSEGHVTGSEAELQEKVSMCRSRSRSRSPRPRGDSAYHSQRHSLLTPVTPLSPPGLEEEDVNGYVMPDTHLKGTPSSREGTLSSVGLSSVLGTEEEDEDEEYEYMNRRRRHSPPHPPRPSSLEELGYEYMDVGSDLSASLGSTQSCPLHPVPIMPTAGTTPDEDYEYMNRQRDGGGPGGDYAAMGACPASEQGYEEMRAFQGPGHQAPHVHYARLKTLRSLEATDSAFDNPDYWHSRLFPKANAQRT

chKTI-SMCC-DM1 conjugate (antibody)
in vitro cytotoxicity EC50 (WST-8 surviving fraction), huHER3-overexpressing 300-19 cells (human HER3 [1]): 53 nM

U3-Pharma/Amgen's U1-59 antibody
Kd (human HER3 [2]): 1 nM
EC50 (human HER3 [3]): 2.2 nM

chKTI-SPDB-DM4 conjugate (antibody)
in vitro cytotoxicity EC50 (WST-8 surviving fraction), huHER3-overexpressing 300-19 cells (human HER3 [1]): 4.4 nM

B1: muHER3-3 antibody (antibody, mouse IgG1, kappa, V domains shown)
VH: QVQLQQPGAELVMPGASVKMSCKASGYTFTDYWIHWVKQRPGQGLEWIGAIDTDTYTSYNQQFKGKATLTVDESSSTAYMQLSSLTSEDSAVYYCARSLLRLLYFDYWGQGTTLTVSS
VL: DIVMTQSPATLSVTPGDRVSLSCRASQSITDYLHWYQQKSHESPRLLIKFASQSISGIPSRFSGSGSGSDFTLSINSVEPEDVGVYYCQNGHSFPLTFGAGTKLELKR
notes: also called HER3-3 (murine)
Kd [4]: 0.14 nM
HRG1β1-induced AKT phosphorylation (pAKT level, % of ligand-only control), whole cell ELISA, MCF7 cells, 10 µg/ml antibody (human HER3 [1]): < 50%
HRG1β1-induced HER3 phosphorylation (pHER3 level, % of ligand-only control), whole cell ELISA, MCF7 cells, 10 µg/ml antibody (human HER3 [1]): < 20%
Kd (human HER3 [5]): 0.21 nM
EC50 (human HER3 [3]): 0.32 nM
Kd (human HER3 [6]): 0.3 nM

B2: muHER3-10 antibody (antibody, mouse IgG1, V domains shown)
VH: EVQLQQSGPELVKPGVSMKISCKASGYSFTDYTMNWVKQSHGKNLEWIGLINPYNDITAYNQKFKGKATLSVNKSSSTAYMELLSLTSEDSAVYYCARRGPRGAWFAYWGQGTLVTVSA
VL: NIVLTQSPASLAVSLGQRATISCRASTSVYNYGNSFMHWYQQMPGQPPKLLIYLASNLESGVPARFSGSGSRTDFTLTIDPVEADDAATYYCQQNSEDPWTFGGGTKLEIKR
notes: also called HER3-10 (murine)
Kd [4]: 0.042 nM
HRG1β1-induced AKT phosphorylation (pAKT level, % of ligand-only control), whole cell ELISA, MCF7 cells, 10 µg/ml antibody (human HER3 [1]): < 50%
HRG1β1-induced HER3 phosphorylation (pHER3 level, % of ligand-only control), whole cell ELISA, MCF7 cells, 10 µg/ml antibody (human HER3 [1]): < 20%
Kd (human HER3 [5]): 0.052 nM
Kd (human HER3 [6]): 0.068 nM

B3: huHER3-8-SMCC-DM1 conjugate (antibody, V domains shown)
VH: QVQLQESGPGLVKPSQSLSLTCTVTGSSITSDYAWNWIRQHPGNKLEWMGFISYSGSTSYNPSLKSRISITRDTSKNQFFLHLSSVTAADTATYYCSRRLGRLYYFDYWGQGTLLTVSS
VL: EIVMTQSPATLSVTPGDRVSLSCRASQSINDYLHWYQQKPGQSPRLLIKFASHSISGIPDRFSGSGSGSDFTLTISSVEPEDVGVYYCQNGHSFPWTFGGGTKLEIKR
modifications: SMCC-DM1 maytansinoid linked to the antibody, 3.5-4 DM1 molecules per antibody; attachment residues and chain not stated
notes: Immunoconjugate of huHER3-8 (v.1.00) with human constant regions; also called huHER3-8-SMCC-DMl
in vitro cytotoxicity EC50 (WST-8 surviving fraction), maHER3-overexpressing 300-19 cells [7]: 0.059 nM
Kd [8]: 0.29 nM
Kd (human HER3 [9]): 0.49 nM
in vitro cytotoxicity EC50 (WST-8 surviving fraction), huHER3-overexpressing 300-19 cells (human HER3 [1]): 0.17 nM

B4: huHER3-3-SMCC-DM1 conjugate (antibody, V domains shown)
VH: QVQLVQPGAEVVKPGASVKMSCKASGYTFTDYWIHWVKQRPGQGLEWIGAIDTDTYTSYNQKFQGKATLTVDESSSTAYMQLSSLTSEDSAVYYCARSLLRLLYFDYWGQGTTLTVSS
VL: EIVMTQSPATLSVTPGDRVTLSCRASQSITDYLHWYQQKPGQSPRLLIKFASQSISGIPDRFSGSGSGSDFTLSISSVEPEDVGVYYCQNGHSFPLTFGQGTKLELKR
modifications: SMCC-DM1 maytansinoid linked to the antibody, 3.5-4 DM1 molecules per antibody; attachment residues and chain not stated
in vitro cytotoxicity EC50 (WST-8 surviving fraction), huHER3-overexpressing 300-19 cells (human HER3 [1]): 0.19 nM

B5: huHER3-3 antibody (antibody, V domains shown)
VH: QVQLVQPGAEVVKPGASVKMSCKASGYTFTDYWIHWVKQRPGQGLEWIGAIDTDTYTSYNQKFQGKATLTVDESSSTAYMQLSSLTSEDSAVYYCARSLLRLLYFDYWGQGTTLTVSS
VL: EIVMTQSPATLSVTPGDRVTLSCRASQSITDYLHWYQQKPGQSPRLLIKFASQSISGIPDRFSGSGSGSDFTLSISSVEPEDVGVYYCQNGHSFPLTFGQGTKLELKR
notes: Recombinant humanized antibody with human constant regions (pAbGlNeo / pAbKZeo plasmids), expressed in HEK 293T; also called humanized (resurfaced) HER3-3
binding result [10]: binds
binding result [11]: binds
binding result [12]: binds
binding result (human HER3 [13]): binds

B6: muHER3-8 antibody (antibody, mouse IgG1, V domains shown)
VH: DVQLQESGPGLVTPSQSLSLTCTVTGSSITSDYAWNWIRQFPGNKLEWMGFISYSGSTSYNPSLKSRISITRDTSKNQFFLHLSSVTSEDTATYYCSRKLGRLYYFDYWGQGTTLTVSS
VL: DIVMTQSPATLSVTPGDRVSLSCRASQSINDYLHWYQQKSHESPRLLIKFASHSISGIPSRFSGSGSGSDFTLTINSVEPEDVGVYYCQNGHSFPWTFGGGTKLEIKR
notes: also called HER3-8 (murine)
EC50 (human HER3 [14]): 0.76 nM
Kd [4]: 0.24 nM
HRG1β1-induced AKT phosphorylation (pAKT level, % of ligand-only control), whole cell ELISA, MCF7 cells, 10 µg/ml antibody (human HER3 [1]): < 50%
HRG1β1-induced HER3 phosphorylation (pHER3 level, % of ligand-only control), whole cell ELISA, MCF7 cells, 10 µg/ml antibody (human HER3 [1]): < 20%
HRG1β1-induced MCF7 cell proliferation (WST-8, % of ligand-only control), 10 µg/ml antibody (human HER3 [1]): 40%
Kd (human HER3 [5]): 0.31 nM
Kd (human HER3 [2]): 0.2 nM
EC50 (human HER3 [3]): 0.29 nM
Kd (human HER3 [6]): 0.23 nM

B7: huHER3-8-SPDB-DM4 conjugate (antibody, V domains shown)
VH: QVQLQESGPGLVKPSQSLSLTCTVTGSSITSDYAWNWIRQHPGNKLEWMGFISYSGSTSYNPSLKSRISITRDTSKNQFFLHLSSVTAADTATYYCSRRLGRLYYFDYWGQGTLLTVSS
VL: EIVMTQSPATLSVTPGDRVSLSCRASQSINDYLHWYQQKPGQSPRLLIKFASHSISGIPDRFSGSGSGSDFTLTISSVEPEDVGVYYCQNGHSFPWTFGGGTKLEIKR
modifications: SPDB-DM4 maytansinoid linked to the antibody, 3.5-4 DM4 molecules per antibody; attachment residues and chain not stated
notes: Immunoconjugate of huHER3-8 (v.1.00) with human constant regions
in vitro cytotoxicity EC50 (WST-8 surviving fraction), maHER3-overexpressing 300-19 cells [7]: 0.099 nM
Kd [8]: 0.23 nM
Kd (human HER3 [9]): 0.29 nM
in vitro cytotoxicity EC50 (WST-8 surviving fraction), huHER3-overexpressing 300-19 cells (human HER3 [1]): 0.18 nM

B8: huHER3-8-PEG4-mal-DM1 conjugate (antibody, V domains shown)
VH: QVQLQESGPGLVKPSQSLSLTCTVTGSSITSDYAWNWIRQHPGNKLEWMGFISYSGSTSYNPSLKSRISITRDTSKNQFFLHLSSVTAADTATYYCSRRLGRLYYFDYWGQGTLLTVSS
VL: EIVMTQSPATLSVTPGDRVSLSCRASQSINDYLHWYQQKPGQSPRLLIKFASHSISGIPDRFSGSGSGSDFTLTISSVEPEDVGVYYCQNGHSFPWTFGGGTKLEIKR
modifications: PEG4-mal-DM1 maytansinoid linked to the antibody, 3.5-4 maytansinoid molecules per antibody; attachment residues and chain not stated
notes: Immunoconjugate of huHER3-8 (v.1.00) with human constant regions; also called huHER3-8-PEG-mal-DM1; huHER3-8-PEG4-Mal-DMl
in vitro cytotoxicity EC50 (WST-8 surviving fraction), maHER3-overexpressing 300-19 cells [7]: 0.045 nM
Kd [8]: 0.28 nM
Kd (human HER3 [9]): 0.27 nM

B9: huHER3-8v.1.00 antibody (antibody, V domains shown)
VH: QVQLQESGPGLVKPSQSLSLTCTVTGSSITSDYAWNWIRQHPGNKLEWMGFISYSGSTSYNPSLKSRISITRDTSKNQFFLHLSSVTAADTATYYCSRRLGRLYYFDYWGQGTLLTVSS
VL: EIVMTQSPATLSVTPGDRVSLSCRASQSINDYLHWYQQKPGQSPRLLIKFASHSISGIPDRFSGSGSGSDFTLTISSVEPEDVGVYYCQNGHSFPWTFGGGTKLEIKR
notes: Recombinant humanized antibody with human constant regions; also called huHER3-8 naked antibody
EC50 (human HER3 [14]): 0.24 nM
Kd [8]: 0.19 nM
Kd (human HER3 [9]): 0.14 nM
binding result [11]: binds
Kd (human HER3 [15]): 0.12 nM
fold increase of binding affinity against muHER3-8 (human HER3 [16]): ~2 fold

B10: huHER3-8v.1.01 antibody (antibody, V domains shown)
VH: QVQLQESGPGLVKPSQSLSLTCTVTGSSITSDYAWNWIRQHPGNKLEWMGFISYSGSTSYNPSLKSRISITRDTSKNQFFLHLSSVTAADTATYYCSRKLGRLYYFDYWGQGTLLTVSS
VL: EIVMTQSPATLSVTPGDRVSLSCRASQSINDYLHWYQQKPGQSPRLLIKFASHSISGIPDRFSGSGSGSDFTLTISSVEPEDVGVYYCQNGHSFPWTFGGGTKLEIKR
notes: Recombinant humanized antibody with human constant regions; murine lysine 95 of heavy chain CDR3 retained
binding result (human HER3 [17]): binds
